Data on two molecules can be found in patent US11472840B2, “Acetylcholine receptor-binding peptide” (AMICOGEN, INC., priority 2017, dated 2022).

The target of one assay is acetylcholine receptor (Homo sapiens, UniProt P02708). Nature of the assay: Surface plasmon resonance (SPR) affinity measurement on a biosensor chip (Biacore 3000). As to conditions: running buffer 20 mM Tris pH 7.4, peptide 0.1 to 0.5 μM, higher binding than Synake (FIG. 10). As for the experimental part: A surface plasmon resonance (SPR) experiment was progressed using a biosensor chip to check affinity values for acetylcholine receptors of S6_1 (SEQ ID NO: 23, WTWKGKGTLNR), i.e., discovered peptides and Synake, i.e., a positive control group (Biacore 3000, Biacore AB, Uppsala, Sweden). […] A binding ability comparing experiment was carried out under observation conditions of a running buffer of 20 mM Tris (pH 7.4), a speed of 30 ? /min, a concentration of 10 to 50 μM (Synake), and a concentration of 0.1 to 10 μM (peptides S6_1). Respective results of the binding ability comparing experiment are shown in FIG. 7 (Synake) and FIG. 8 (peptides S6_1).
A surface plasmon resonance (SPR) experiment was progressed using a biosensor chip to check affinity values for acetylcholine receptors of optimized S6_1_C9 peptides (SEQ ID NO: 28, WKGKGTLNR) prepared in Example 6 (Biacore 3000, Biacore AB, Uppsala, Sweden).
An experiment of measuring affinity values of the peptides was carried out under observation conditions of a running buffer of 20 mM Tris (pH 7.4), a speed of 30 ? /min, and a concentration of 0.1 to 0.5 μM (peptides S6_1_C9).
On the technique in general: Surface plasmon resonance follows binding to a sensor surface in real time, without labels.

In assay [1] the target is acetylcholine receptor (AchR) alpha 1. Nature of the assay: SPR (Biacore 3000), AchR coupled to chip, peptide 0.1 to 0.5 uM; reference Synake.
Sequence of acetylcholine receptor (AchR) alpha 1 (P02708 whole entry): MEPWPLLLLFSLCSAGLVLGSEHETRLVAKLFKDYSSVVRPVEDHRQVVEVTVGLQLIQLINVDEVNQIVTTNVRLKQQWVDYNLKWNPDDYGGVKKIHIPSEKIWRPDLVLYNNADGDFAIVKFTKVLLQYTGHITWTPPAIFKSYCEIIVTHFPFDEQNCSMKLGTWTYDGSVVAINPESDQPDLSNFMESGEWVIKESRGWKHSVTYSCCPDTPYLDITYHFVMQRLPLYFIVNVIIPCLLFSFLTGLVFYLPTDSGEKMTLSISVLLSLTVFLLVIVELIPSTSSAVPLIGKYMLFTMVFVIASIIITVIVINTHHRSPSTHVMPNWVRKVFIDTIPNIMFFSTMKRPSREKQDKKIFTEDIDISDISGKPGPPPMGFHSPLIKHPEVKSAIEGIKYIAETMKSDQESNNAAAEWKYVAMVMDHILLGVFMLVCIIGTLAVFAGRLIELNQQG

Sequence of acetylcholine receptor (P02708 21-457): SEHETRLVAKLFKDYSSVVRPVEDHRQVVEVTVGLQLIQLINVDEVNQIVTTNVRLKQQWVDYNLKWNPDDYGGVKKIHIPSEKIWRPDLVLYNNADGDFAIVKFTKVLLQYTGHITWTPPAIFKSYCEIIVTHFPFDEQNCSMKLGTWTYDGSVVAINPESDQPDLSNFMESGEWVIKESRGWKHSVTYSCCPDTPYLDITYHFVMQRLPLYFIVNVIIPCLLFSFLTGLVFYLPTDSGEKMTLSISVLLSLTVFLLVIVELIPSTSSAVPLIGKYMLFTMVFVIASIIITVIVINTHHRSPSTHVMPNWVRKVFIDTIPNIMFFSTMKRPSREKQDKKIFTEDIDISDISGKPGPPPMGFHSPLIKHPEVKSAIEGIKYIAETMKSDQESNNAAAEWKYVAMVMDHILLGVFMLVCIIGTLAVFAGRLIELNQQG

Consider WKGKGTLNR (Ach-R) [S6_1_C9], for which the “binding ability for acetylcholine receptor relative to Synake” value in the assay with acetylcholine receptor is on record as “about 100 times”.

B1: S6_1_C9 (peptide)
peptide: WKGKGTLNR
On to B1, for which, in assay [1], the binding abilities, fold higher than Synake is 100 times.
